Target: the molecule itself
Assay: SEC; analytical gel filtration, Superdex HR75 10/30, 20 mM Tris-HCl pH 8.0, 250 mM NaCl, SaMazF at 3.3 mg/ml; apparent molecular weight about 31 500 Da

B1: Staphylococcus aureus MazF toxin (SaMazF), N-terminally His-tagged (enzyme)
chain: IRRGDVYLADLSPVQGSEQGGVRPVVIIQNDTGNKYSPTVIVAAITGRINKAKIPTHVEIEKKKYKLDKDSVILLEQIRTLDKKRLKEKLTYLSDDKMKEVDNALMISLGLNAVAHQKN
notes: SaMazF, the MazF toxin (ribonuclease) of the Staphylococcus aureus mazEF module; wild type; 13C15N-labelled for the NMR experiments; The models number the tag's last residues Gln-1, Asp0, Pro1, so the tag's Pro may stand at position 1 of SaMazF in place of Met1; The measured mass is 14 794 Da, for the chain with the tag and without the N-terminal methionine; also called SaMazF2 (the dimer); …
- stoichiometry N: 2

From paper PMC4041440, “Structural and biophysical characterization of Staphylococcus aureus SaMazF shows conservation of functional dynamics” (Nucleic Acids Research, 2014)
